Assay results reported in paper PMC6155069, “Cryo-EM analysis of the T3S injectisome reveals the structure of the needle and open secretin” (Nature Communications, 2018).

B1: PrgH (inner membrane ring protein) in the purified needle complex (natural protein)
chain: METSKEKTITSPGPYIVRLLNSSLNGCEFPLLTGRTLFVVGQSDALTASGQLPDIPADSFFIPLDHGGVNFEIQVDTDATEIILHELKEGNSESRSVQLNTPIQVGELLILIRPESEPWVPEQPEKLETSAKKNEPRFKNGIVAALAGFFILGIGTVGTLWILNSPQRQAAELDSLLGQEKERFQVLPGRDKMLYVAAQNERDTLWARQVLARGDYDKNARVINENEENKRISIWLDTYYPQLAYYRIHFDEPRKPVFWLSRQRNTMSKKELEVLSQKLRALMPYADSVNITLMDDVTAAGQAEAGLKQQALPYSRRNHKGGVTFVIQGALDDVEILRARQFVDSYYRTWGGRYVQFAIELKDDWLKGRSFQYGAEGYIKMSPGHWYFPSPL
notes: PrgH, Salmonella Typhimurium SPI-1 type III secretion system, native protein in the needle complex; Native protein stood in the sample; only 171-364 was modelled; also called PrgH_(171–364); IM rings; source: endogenous, ΔflhD Salmonella SL1344 with HilA on a pBAD plasmid; needle complex purified (LDAO lysis, centrifugation, CsCl gradient, Superose 6); copies: 24
B2: InvG (outer membrane secretin) in the purified needle complex (natural protein)
chain: SEKIPVTGSGFVAKDDSLRTFFDAMALQLKEPVIVSKMAARKKITGNFEFHDPNALLEKLSLQLGLIWYFDGQAIYIYDASEMRNAVVSLRNVSLNEFNNFLKRSGLYNKNYPLRGDNRKGTFYVSGPPVYVDMVVNAATMMDKQNDGIELGRQKIGVMRLNNTFVGDRTYNLRDQKMVIPGIATAIERLLQGEEQPLGNIVSSEPPAMPAFSANGEKGKAANYAGGMSLQEALKQNAAAGNIKIVAYPDTNSLLVKGTAEQVHFIEMLVKALDVAKRHVELSLWIVDLNKSDLERLGTSWSGSITIGDKLGVSLNQSSISTLDGSRFIAAVNALEEKKQATVVSRPVLLTQENVPAIFDNNRTFYTKLIGERNVALEHVTYGTMIRVLPRFSADGQIEMSLDIEDGNDKTPQSDTTTSVDALPEVGRTLISTIARVPHGKSLLVGGYTRDANTDTVQSIPFLGKLPLIGSLFRYSSKNKSNVVRVFMIEPKEIVDPLTPDASESVNNILKQSGAWSGDDKLQKWVRVYLDRGQEAIK
notes: InvG, secretin of the Salmonella Typhimurium SPI-1 type III secretion system, native protein in the needle complex; the final model covers residues 34-557 (N3 domain loop 228-251 disordered); Native protein stood in the sample; 34-557 was modelled (core 176-557 at 3.9 Å); also called InvG_(34–557); InvG_(176–557); source: endogenous, ΔflhD Salmonella SL1344 with HilA on a pBAD plasmid; needle …

What was measured:
[1] = biological target: B1; assay: cryo-EM structure; purified needle complex; symmetrised reconstructions with atomic models: C24 IM rings 3.6 Å; signal subtraction and focussed refinement of the secretin with C15, 4.1 Å (whole) and 3.9 Å (core); conditions: both partners purified
[2] = biological target: the molecule itself; assay: as above
[3] = biological target: B2; assay: cryo-EM structure; purified needle complex; unsymmetrised C1 reconstruction, 7.4 Å; molecular envelope, needle model fitted with Chimera; conditions: both partners purified
[4] = biological target: the molecule itself; assay: cryo-EM structure; isolated needle filaments, helical reconstruction in Relion, 3.3 Å (helical rise 4.33 Å, turn 63.34°), de novo model

Binder | binding result [1] | stoichiometry N [2] | binding result [3] | binding result [4]
PrgK (inner membrane ring protein) in the purified needle complex (natural protein, PrgK, Salmonella Typhimurium SPI-1 type III secretion system, native protein in the needle complex; Native protein stood in the sample; only 20-203 was modelled; also called PrgK_(20–203); IM rings; source: endogenous, ΔflhD Salmonella SL1344 with HilA on a pBAD plasmid; needle complex purified (LDAO lysis, centrifugation, CsCl gradient, Superose 6); copies: 24) CKDKDLLKGLDQEQANEVIAVLQMHNIEANKIDSGKLGYSITVAEPDFTAAVYWIKTYQLPPRPRVEIAQMFPADSLVSSPRAEKARLYSAIEQRLEQSLQTMEGVLSARVHISYDIDAGENGRPPKPVHLSALAVYERGSPLAHQISDIKRFLKNSFADVDYDNISVVLSERSDAQLQAPGTPVKRNSFATSWIVLIILLSVMSAGFGVWYYKNHYARNKKGITADDKAKSSNE | binds | 24 | – | –
B1 | – | 24 | binds | –
PrgI (needle protein), isolated needle filament (natural protein, PrgI, needle protein of the Salmonella Typhimurium SPI-1 type III secretion system; the model covers residues 3-80 (lacks only the first two N-terminal residues; C-terminal residue Arg80); Helical polymer of many copies; also called the needle; PrgI_(3–80); source: non-flagellated ΔPrgI Salmonella Typhimurium complemented with PrgI and hilA on pBAD plasmid; filaments removed by vigorous stirring, …) MATPWSGYLDDVSAKFDTGVDNLQTQVTEALDKLAAKPSDPALLAAYQSKLSEYNLYRNAQSNTVKVFKDIDAAIIQNFR | – | – | – | binds
PrgI (needle protein) in the purified needle complex (natural protein, UniProt P41784 1-80, looked up, PrgI, needle protein of the Salmonella Typhimurium SPI-1 type III secretion system, as part of the native needle complex; Not resolved at high resolution inside the needle complex; the model of the isolated needle was fitted into the C1 map; also called the needle; needle filament; source: endogenous, ΔflhD Salmonella SL1344 with HilA on a pBAD plasmid; needle complex purified (LDAO lysis, …)) MATPWSGYLDDVSAKFDTGVDNLQTQVTEALDKLAAKPSDPALLAAYQSKLSEYNLYRNAQSNTVKVFKDIDAAIIQNFR | – | – | binds | –
B2 | – | 15 | – | –
